Experimental data: PMC7954794, “Protein context shapes the specificity of SH3 domain-mediated interactions in vivo” (Nature Communications, 2021)

System: PPIs identified as affected by the SH3 domain deletions
Assay: Liquid DHFR-PCA low-throughput validation of PPIs affected by SH3 deletion (Fig. S1D-E)
Type: cell-based, Saccharomyces cerevisiae
Details: label = prey, liquid DHFR-PCA, prey _1 = lost, _2 = gained in screen
Experimental: Liquid DHFR-PCA low-throughput experiments were performed to validate the PPIs identified as affected by the SH3 domain deletions in the high-throughput solid DHFR-PCA screen (256 PPIs weaker or lost and 116 PPIs stronger or gained following domain deletions). Mating and the diploid selection were performed as described for the large-scale experiment, with the exception that the plates were in 384 formats. Following the second diploid selection, diploid cells were inoculated in a 96 v-shaped well plate using a robotically manipulated 96 pin tool in a synthetic complete medium with MSG at pH 6.0 with NAT and HPH. After 48 h of growth, optical density (OD) was read using a TECAN Infinite F200 Pro, and dilutions to 1 OD in sterile nanopure water were prepared. Cells were then diluted to 0.1 OD by combining 25 µl of cell suspension at OD = 1 and 225 µl of PCA selection media without agar in a 96-wells plate. Plates were incubated at 30 °C in a TECAN Infinite M Nano and OD was monitored each 15 min for 72 h.

B1: YGR229C_2 (protein, UniProt P32566 1-505, looked up)
Cell wall assembly regulator …: MDLFKRKVKEWVYSLSTDDHYAEYNPDETPTFNMGKRLNSNNGQVNPSQMHLNSVDEEMSMGFQNGVPSNEDINIDEFTSTESNDGVSETLLAWRHIDFWTSEHNPDLNATLSDPCTQNDITHAEEDLEVSFPNPVKASFKIHDGQEDLESMTGTSGLFYGFQLMTLDQVVAMTQAWRNVAKNLNKRSQQGLSHVTSTGSSSSMERLNGNKFKLPNIPDQKSIPPNAVQPVYAHPAWIPLITDNAGNHIGVDLAPGPNGKYAQIITFGRDFDTKFVIAENWGEFLLSFANDLEAGNWYLVDDNDDYFSGDGELVFRDKKSNGPIQDYFEVLKRRTWIKYQENLRSQQQKSQPDTSLQEQKYVPASQKKVAAEQPSTLNAESIKGEDSGSADVQSVQDHESVKIVKTEPSEAETTTVNTESLGQAEHEIKADNVDIKQESERKEDEKQPKVEEKEHVENEHVTESAKKDDDVNKQTEEMNKKEENEIRSDDAKVEEAREEFENIAL
Ratio (Deletedscore / WTscore) (bait BZZ1-1): 1.034
Ratio (Deletedscore / WTscore) (bait BZZ1-2): 1.734
Ratio (Deletedscore / WTscore) (bait LSB1): 1.08
Ratio (Deletedscore / WTscore) (bait PIN3): 1.619

B2: YCL024W_2 (protein, UniProt P25389 1-1037, looked up)
Probable …: MTVANTETHSAAKPSSTIGPWKLGETLGFGSTGKVQLAQHERTGHRTAVKVISKSIFNNNGNHSNDDSVLPYNIEREIVIMKLLSHPNVLSLYDVWETNNNLYLILEYAEKGELFNLLVDHGPLPEREAINCFRQIIIGISYCHALGIVHRDLKPENLLLDSFYNIKIADFGMAALQTDADLLETSCGSPHYAAPEIVSGLPYEGFASDVWSCGVILFALLTGRLPFDEENGNVRDLLLKVQKGQFEMPNDTEISRDAQDLIGKILVVDPRQRIKIRDILSHPLLKKYQTIKDSKSIKDLPRENTYLYPLADSNNHTSASIDDSILQNLVVLWHGRHADDIVSKLKENGTNKEKILYALLYRFKLDSVRGSNKKNRNKIKKTKKNKRSSTLSSSSSLLLNNRSIQSTPRRRTSKRHSREFSSSRKRSSFLLSSNPTDSSPIPLRSSKRITHINVASANTQATPSGVPNPHKRNSKKRSSKRLSYMPNTKRSSLTSKSLSNFTNLIDDDDWEYIEKDAKRTSSNFATLIDEIFEPEKFELAKREKAELQRKVQEAKRQSVNAQKINEDEFGSEVSDGMKELKKINDKVSSPLINYEFSQQELLQDIDTLLTNRYQLSSYTRPISRLDPGLTPVTETLPNNLKEKTALLQDTEKKIIETIRRSKFLGSLLNVRGGLSPGKSELAPIEESPIVSTTPLIYNDRMEPRRISDVEVPHFTRKSKHFTTANNRRSVLSLYAKDSIKDLNEFLIKEDPDLPPQGSTDNESRSEDPEIAESITDSRNIQYDEDDSKDGDNVNNDNILSDFPQGVGISQEYDMKDKNPNQSPISKSAEPTLVVKLPSLSSFQGKNASGLGLYQREPSKVTLPSLTSNNSSVGENIEDGAEKGTESEKIAASLSDDDLKEDNDKKDNDTVNAPTTVKKPPNSVLLKKFSKGKILELEIHAKIPEKRLYEGLHKLLEGWKQYGLKNLVFNITNMIITGKLVNDSILFLRSTLFEIMVLPNGDGRSLIKFNKKTGSTKTLTKLATEIQIILQKEGVLDK
Ratio (Deletedscore / WTscore) (bait NBP2): 1.51

B3: YLR191W_2 (protein, UniProt P80667 1-386, looked up)
Peroxisomal membrane protein …: MSSTAVPRPKPWETSASLEEPQRNAQSLSAMMTSNQQDSRPTEESNNSNSASESAPEVLPRPAALNSSGTYGESNTIPGIYGNSNYGIPYDNNPYSMNSIYGNSIGRYGYGGSYYGNNYGSFYGGGYGAGAGYGMNNGSGLGESTKATFQLIESLIGAVTGFAQMLESTYMATHNSFFTMISVAEQFGNLKEMLGSFFGIFAIMKFLKKILYRATKGRLGIPPKNFAESEGSKNKLIEDFQKFNDSGTINSNEKATRRKISWKPLLFFLMAVFGFPYLLNKFITKLQTSGTIRASQGNGSEPIDPSKLEFARALYDFVPENPEMEVALKKGDLMAILSKKDPLGRDSDWWKVRTKNGNIGYIPYNYIEIIKRRKKIEHVDDETRTH
Ratio (Deletedscore / WTscore) (bait BEM1-1): 1.873
Ratio (Deletedscore / WTscore) (bait): 1.174
